Key:
MHET = assay: Proxy for plastic degradation [kcat] (s⁻¹); settings: pH 7.5
PET = assay: Proxy for plastic degradation [Released monomer concentration (HPLC/LC-MS) (BHET+MHET+TPA)]; settings: pH 7.5; part of the chain shown

Protein	Proxy for plastic degradation (MHET; part of the chain shown)	Proxy for plastic degradation (PET)	Proxy for plastic degradation (MHET)
unnamed (protein) MQTTVTTMLLASVALAACAGGGSTPLPLPQQQPPQQEPPPPPVPLASRAACEALKDGNGDMVWPNAATVVEVAAWRDAAPATASAAALPEHCEVSGAIAKRTGIDGYPYEIKFRLRMPAEWNGRFFMEGGSGTNGSLSAATGSIGGGQIASALSRNFATIATDGGHDNAVNDNPDALGTVAFGLDPQARLDMGYNSYDQVTQAGKAAVARFYGRAADKSYFIGCSEGGREGMMLSQRFPSHYDGIVAGAPGYQLPKAGISGAWTTQSLAPAAVGLDAQGVPLINKSFSDADLHLLSQAILGTCDALDGLADGIVDNYRACQAAFDPATAANPANGQALQCVGAKTADCLSPVQVTAIKRAMAGPVNSAGTPLYNRWAWDAGMSGLSGTTYNQGWRSWWLGSFNSSANNAQRVSGFSARSWLVDFATPPEPMPMTQVAARMMKFDFDIDPLKIWATSGQFTQSSMDWHGATSTDLAAFRDRGGKMILYHGMSDAAFSALDTADYYERLGAAMPGAAGFARLFLVPGMNHCSGGPGTDRFDMLTPLVAWVERGEAPDQISAWSGTPGYFGVAARTRPLCPYPQIARYKGSGDINTEANFACAAPP	27.6	0 mM	–
unnamed (protein) MNFPRASRLMQAAVLGGLMAVSAAATAQTNPYARGPNPTAASLEASAGPFTVRSFTVSRPSGYGAGTVYYPTNAGGTVGAIAIVPGYTARQSSIKWWGPRLASHGFVVITIDTNSTLDQPSSRSSQQMAALRQVASLNGTSSSPIYGKVDTARMGVMGCSMGGGGSLISAANNPSLKAAAPQAPWDSSTNFSSVTVPTLIFACENDSIAPVNSSALPIYDSMSRNAKQFLEINGGSHCCANSGNSNQALIGKKGVAWMKRFMDNDTRYSTFACENPNSTRVSDFRTANCS	–	–	0.03
unnamed (protein) MNFPRASRLMQAAVLGGLMAVSAAATAQTNPYARGPNPTAASLEASAGPFTVRSFTVSRPSGYGAGTVYYPTNAGGTVGAIAIVPGYTARQSSIKWWGPRLASHGFVVITIDTNSTLDQPSSRSSQQMAALRQVASLNGTSSSPIYGKVDTARMGVMGWSMGGGGSLISAANNPSLKAAAPQAPWDSSTNFSSVTVPTLIFACENDSIAPVNSSALPIYDSMSRNAKQFLEINGGSHSCANSGNSNQALIGKKGVAWMKRFMDNDTRYSTFACENPNSTRVSDFRTANCS	0	–	–
unnamed (protein) MKSSIPISVGMLATALISGCGSVPDNTSNEPTVPLASKELCEGIASGATKVNWPNQNTVVKASVWHAVTPATANAPELPEHCEVTGSINQRTGVDGYPYEIKMRLRMPADWNGRFFMEGGGGTNGSLSAALGSLGGGQTSNALSRRFATVSTDGGHDNAVNNNPAALGSVAFGMDPQARLDHGYNSYDQVTLAGKSAVSTFYGRGPDKSYFIGCSEGGREGMMFSQRFPAHYDGIVAGAPGYQLPKAGISGAWTTQSLAPAAVGVDPDGAPLVNKSFSDPDLYLLTQAILGSCDALDGLADGIVGNYSACQSLFDPSTALNPATGQPLRCTGAKTDDCLSPVQVDAIKRAMSGPVDTAGTALYNKWPWDTGMSGLNGTTYFQGWRSWWLGSYDSSTNNAQRVNGSSARSWLVDFATPPEPVPLNQVATRMMNFDFDVDPPKIFATSGLFTQPSMQWHGATSTDLNAFRSRGGKLMLYHGMADAAFSALDTIAYYERLSTAMPSVSDFSRLFLVPGMGHCSGGPGTDRFDMLTPLVAWVENGTAPARVEASSSTPGYFGVSARSRPLCPHPQIARYTGSGDINEATNFVCGNP	–	–	3.8

Reference: the PETadex activity labels (doi:10.1073/pnas.2006753117)
